From the supplement of paper PMC9233669 come the findings set out here.

For one data set, the system named is biotinyl-Val-oxazolone. Put plainly: self-aminoacylation, catalytic enhancement (BVO) (fold over background); higher = more active; k-Seq, kA / k0A0; sequences stand for … in GGGAAUGGAUCCACAUCUACGAAUUC…UUCACUGCAGACUUGACGAAGCUG
The gist of the method: (§1)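 Mutagenized RNA pools with a 21-nt variable region (0.43 μM) were reacted with each biotinyl-aminoacyl-oxazolone at 2–1250 μM for 90 minutes at room temperature, in 50 μL HEPES/NaCl/KCl/MgCl2/CaCl2 buffer containing 5% acetonitrile at pH 6.9–7.0. RNA captured on streptavidin was quantified by triplicate qPCR and by Illumina sequencing. The fraction reacted for each sequence was fit to a pseudo-first-order model with bootstrapping, and catalytic enhancement is the median kA divided by the uncatalyzed rate, taken as the low-activity peak of a bimodal Gaussian fit.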

The subject of a further data set is biotinyl-Phe-oxazolone. Nature of the data set: self-aminoacylation, catalytic enhancement (BFO) (fold over background); higher = more active; k-Seq, kA / k0A0; sequences stand for … in GGGAAUGGAUCCACAUCUACGAAUUC…UUCACUGCAGACUUGACGAAGCUG
A digest of the protocol: as §1

The test system of another data set is biotinyl-Ile-oxazolone. Nature of the data set: self-aminoacylation, catalytic enhancement (BIO) (fold over background); higher = more active; k-Seq, kA / k0A0; sequences stand for … in GGGAAUGGAUCCACAUCUACGAAUUC…UUCACUGCAGACUUGACGAAGCUG
A digest of the protocol:
as §1

The next data set deals with biotinyl-Leu-oxazolone. Put plainly: self-aminoacylation, catalytic enhancement (BLO) (fold over background); higher = more active; k-Seq, kA / k0A0; sequences stand for … in GGGAAUGGAUCCACAUCUACGAAUUC…UUCACUGCAGACUUGACGAAGCUG
The gist of the method:
as §1

The test system of another data set is biotinyl-Met-oxazolone. Nature of the data set: self-aminoacylation, catalytic enhancement (BMO) (fold over background); higher = more active; k-Seq, kA / k0A0; sequences stand for … in GGGAAUGGAUCCACAUCUACGAAUUC…UUCACUGCAGACUUGACGAAGCUG
A digest of the protocol: as §1

A further data set deals with biotinyl-Trp-oxazolone. Put plainly: self-aminoacylation, catalytic enhancement (BWO) (fold over background); higher = more active; k-Seq, kA / k0A0; sequences stand for … in GGGAAUGGAUCCACAUCUACGAAUUC…UUCACUGCAGACUUGACGAAGCUG
A digest of the protocol: as §1

Fewer inactive variants are shown than the library holds.

As to “AAGUUUGCUAAUAGUCGCAUU [Fam3.1 aminoacylation ribozyme variant]”, the self-aminoacylation stood at 1.22 in the data set on biotinyl-Val-oxazolone; 1.63 in the data set with biotinyl-Phe-oxazolone; 1.37 with biotinyl-Ile-oxazolone; 1.27 in the data set with biotinyl-Leu-oxazolone; 1.25 in the data set on biotinyl-Met-oxazolone; 1.29 with biotinyl-Trp-oxazolone.

For “AAUUUUGCAAAUAGUCGCAAG [Fam3.1 aminoacylation ribozyme variant]”, the self-aminoacylation with biotinyl-Val-oxazolone turned out to be 2.31; in the data set with biotinyl-Phe-oxazolone it was 2.73; in the data set with biotinyl-Ile-oxazolone it was 2.33; in the data set on biotinyl-Leu-oxazolone it was 1.51; in the data set with biotinyl-Met-oxazolone it was 2.02; with biotinyl-Trp-oxazolone, 2.48.

Regarding “AAGUUUGGGAAUAGUCGCAAG [Fam3.1 aminoacylation ribozyme variant]”, the self-aminoacylation in the data set with biotinyl-Val-oxazolone turned out to be 1.25; in the data set on biotinyl-Phe-oxazolone it was 1.95; in the data set with biotinyl-Ile-oxazolone it was 1.32; in the data set on biotinyl-Leu-oxazolone, 1.05; with biotinyl-Met-oxazolone, 0.876; with biotinyl-Trp-oxazolone, 1.69.

Take “AGUCAGCUAGGUCAUCGGGUG [Fam2.2 aminoacylation ribozyme variant]”: the self-aminoacylation in the data set on biotinyl-Val-oxazolone was found to be 5.51; with biotinyl-Phe-oxazolone, 58.2; in the data set with biotinyl-Ile-oxazolone, 5.42; with biotinyl-Leu-oxazolone, 6.1; in the data set with biotinyl-Met-oxazolone, 5.84; with biotinyl-Trp-oxazolone it was 9.92.

In the case of “AAGUUUGUUAAUUGUCGCAAG [Fam3.1 aminoacylation ribozyme variant]”, the self-aminoacylation was 0.926 in the data set on biotinyl-Val-oxazolone; 0.994 with biotinyl-Phe-oxazolone; 1.09 in the data set with biotinyl-Ile-oxazolone; 0.933 in the data set with biotinyl-Leu-oxazolone; 0.992 with biotinyl-Met-oxazolone; 0.92 with biotinyl-Trp-oxazolone.

For the sequence “AAGUUUGAUAAAAGUCGCAAG [Fam3.1 aminoacylation ribozyme variant]”, the self-aminoacylation in the data set on biotinyl-Val-oxazolone was 1.22; with biotinyl-Phe-oxazolone, 2.15; in the data set on biotinyl-Ile-oxazolone, 1.51; with biotinyl-Leu-oxazolone, 1.13; in the data set with biotinyl-Met-oxazolone, 1.64; with biotinyl-Trp-oxazolone, 1.46.

On to “CGACUUCAAACAAUCGGUCUU [Fam1A.1 aminoacylation ribozyme variant]”, for which the self-aminoacylation in the data set on biotinyl-Val-oxazolone turned out to be 1.71; in the data set on biotinyl-Phe-oxazolone, 18.2; with biotinyl-Ile-oxazolone it was 1.64; in the data set on biotinyl-Leu-oxazolone, 1.77; with biotinyl-Met-oxazolone it was 1.26; in the data set with biotinyl-Trp-oxazolone, 12.7.

Take “AUUACCCUGGGCAACGAGUGA [Fam2.1 aminoacylation ribozyme variant]”: the self-aminoacylation was determined as 4 in the data set with biotinyl-Val-oxazolone; 57.4 in the data set on biotinyl-Phe-oxazolone; 3.81 in the data set with biotinyl-Ile-oxazolone; 10.3 with biotinyl-Leu-oxazolone; 7.64 in the data set on biotinyl-Met-oxazolone; 10.3 in the data set on biotinyl-Trp-oxazolone.

As for “UUUUACCUAGGUCAUCGGGUG [Fam2.2 aminoacylation ribozyme variant]”, the self-aminoacylation came out at 6.67 in the data set on biotinyl-Val-oxazolone; 56.1 with biotinyl-Phe-oxazolone; 6.78 in the data set on biotinyl-Ile-oxazolone; 13.5 in the data set with biotinyl-Leu-oxazolone; 10.3 in the data set on biotinyl-Met-oxazolone; 10.4 in the data set with biotinyl-Trp-oxazolone.

“AGUACGCUGGUCAUCGAGUGA [Fam2.1 aminoacylation ribozyme variant]”: the self-aminoacylation with biotinyl-Val-oxazolone was determined as 3.21; in the data set on biotinyl-Phe-oxazolone, 14.4; in the data set on biotinyl-Ile-oxazolone it was 3.17; with biotinyl-Leu-oxazolone it was 4.19; with biotinyl-Met-oxazolone it was 2.82; in the data set on biotinyl-Trp-oxazolone it was 5.19.

Turning to “ACGUUUGCUUAUAGUCGCAAG [Fam3.1 aminoacylation ribozyme variant]”, the self-aminoacylation amounted to 1.46 in the data set with biotinyl-Val-oxazolone; 1.76 in the data set with biotinyl-Phe-oxazolone; 1.32 with biotinyl-Ile-oxazolone; 1.67 in the data set on biotinyl-Leu-oxazolone; 1.68 with biotinyl-Met-oxazolone; 1.75 in the data set with biotinyl-Trp-oxazolone.

Take “AUUCACCUAGGUCAGGGGGUG [Fam2.2 aminoacylation ribozyme variant]”: the self-aminoacylation with biotinyl-Val-oxazolone was determined as 1.8; in the data set with biotinyl-Phe-oxazolone, 13.9; in the data set on biotinyl-Ile-oxazolone, 1.78; with biotinyl-Leu-oxazolone, 3.4; in the data set on biotinyl-Met-oxazolone, 2.67; in the data set with biotinyl-Trp-oxazolone it was 2.55.

For “AUUACCCUGGUCAACGCGUGA [Fam2.1 aminoacylation ribozyme variant]”, the self-aminoacylation was determined as 6.15 in the data set with biotinyl-Val-oxazolone; 72.1 in the data set with biotinyl-Phe-oxazolone; 4.65 in the data set on biotinyl-Ile-oxazolone; 12.5 in the data set on biotinyl-Leu-oxazolone; 10.8 in the data set with biotinyl-Met-oxazolone; 12.3 in the data set on biotinyl-Trp-oxazolone.

Take “CUUACCCUGGACAUCGAGUGA [Fam2.1 aminoacylation ribozyme variant]”: the self-aminoacylation in the data set on biotinyl-Val-oxazolone was 3.18; with biotinyl-Phe-oxazolone it was 11.5; in the data set on biotinyl-Ile-oxazolone it was 2.78; with biotinyl-Leu-oxazolone, 5.46; in the data set with biotinyl-Met-oxazolone, 5.08; with biotinyl-Trp-oxazolone, 5.06.

As to “CUUAUUCAAACAAUCGGUCUG [Fam1A.1 aminoacylation ribozyme variant]”, the self-aminoacylation in the data set on biotinyl-Val-oxazolone was 0.688; in the data set on biotinyl-Phe-oxazolone it was 7.03; in the data set on biotinyl-Ile-oxazolone, 0.702; in the data set on biotinyl-Leu-oxazolone it was 0.679; in the data set with biotinyl-Met-oxazolone, 0.713; in the data set with biotinyl-Trp-oxazolone, 3.34.

As to “CUACGUCGAACAAUCGGUCUG [Fam1A.1 aminoacylation ribozyme variant]”, the self-aminoacylation in the data set with biotinyl-Val-oxazolone turned out to be 1.93; in the data set on biotinyl-Phe-oxazolone it was 4.04; with biotinyl-Ile-oxazolone, 1.7; in the data set on biotinyl-Leu-oxazolone, 1.83; with biotinyl-Met-oxazolone, 1.91; in the data set with biotinyl-Trp-oxazolone, 1.3.

In the case of “AUUACCCUGGUCAUCUAGUCA [Fam2.1 aminoacylation ribozyme variant]”, the self-aminoacylation was 0.827 with biotinyl-Val-oxazolone; 0.712 in the data set on biotinyl-Phe-oxazolone; 0.753 in the data set on biotinyl-Ile-oxazolone; 0.616 with biotinyl-Leu-oxazolone; 0.578 in the data set with biotinyl-Met-oxazolone; 0.455 in the data set with biotinyl-Trp-oxazolone.

“AUUCACCUAGGUCAUAGAGUG [Fam2.2 aminoacylation ribozyme variant]”: the self-aminoacylation in the data set with biotinyl-Val-oxazolone came out at 2.08; with biotinyl-Phe-oxazolone, 10.1; in the data set with biotinyl-Ile-oxazolone, 2.23; in the data set on biotinyl-Leu-oxazolone it was 3.92; in the data set on biotinyl-Met-oxazolone, 2.98; with biotinyl-Trp-oxazolone, 2.12.

For the sequence “CUCACCCUGGUCAUCGAGUGA [Fam2.1 aminoacylation ribozyme variant]”, the self-aminoacylation is 4.49 in the data set on biotinyl-Val-oxazolone; 27.1 in the data set on biotinyl-Phe-oxazolone; 3.71 with biotinyl-Ile-oxazolone; 7.38 in the data set on biotinyl-Leu-oxazolone; 5.33 in the data set with biotinyl-Met-oxazolone; 6.74 with biotinyl-Trp-oxazolone.

Turning to “AGGUUUGCUAAUAGUCGCAAC [Fam3.1 aminoacylation ribozyme variant]”, the self-aminoacylation came out at 1.05 in the data set on biotinyl-Val-oxazolone; 1.52 in the data set with biotinyl-Phe-oxazolone; 1.26 in the data set with biotinyl-Ile-oxazolone; 1.13 in the data set on biotinyl-Leu-oxazolone; 1.15 in the data set on biotinyl-Met-oxazolone; 1.43 in the data set with biotinyl-Trp-oxazolone.

In the case of “CAGUUUGCAAAUAGUCGCAAG [Fam3.1 aminoacylation ribozyme variant]”, the self-aminoacylation came to 1.52 in the data set on biotinyl-Val-oxazolone; 2.37 in the data set on biotinyl-Phe-oxazolone; 1.72 in the data set on biotinyl-Ile-oxazolone; 2.03 in the data set with biotinyl-Leu-oxazolone; 1.65 in the data set with biotinyl-Met-oxazolone; 2.02 in the data set on biotinyl-Trp-oxazolone.

As to “CAACACUCCAAGCAAUCGGUC [Fam1B.1 aminoacylation ribozyme variant]”, the self-aminoacylation with biotinyl-Val-oxazolone is 1.06; in the data set on biotinyl-Phe-oxazolone it was 1.67; in the data set on biotinyl-Ile-oxazolone it was 1.13; with biotinyl-Leu-oxazolone, 0.956; with biotinyl-Met-oxazolone it was 1.02; with biotinyl-Trp-oxazolone it was 1.77.

With “AAAUUUGCUAAUAGUCGCACG [Fam3.1 aminoacylation ribozyme variant]”, the self-aminoacylation was found to be 1.72 in the data set on biotinyl-Val-oxazolone; 1.47 in the data set with biotinyl-Phe-oxazolone; 1.58 in the data set on biotinyl-Ile-oxazolone; 1.42 with biotinyl-Leu-oxazolone; 1.38 in the data set on biotinyl-Met-oxazolone; 1.81 in the data set with biotinyl-Trp-oxazolone.

On to “AUUCAUCUAGGUAAUCGGGUG [Fam2.2 aminoacylation ribozyme variant]”, for which the self-aminoacylation in the data set with biotinyl-Val-oxazolone came out at 1.73; in the data set on biotinyl-Phe-oxazolone it was 19.5; in the data set on biotinyl-Ile-oxazolone it was 1.95; in the data set with biotinyl-Leu-oxazolone, 4.09; in the data set on biotinyl-Met-oxazolone, 3.07; with biotinyl-Trp-oxazolone it was 2.6.

For “AAGUUUGCUAAUAGUAGCCAG [Fam3.1 aminoacylation ribozyme variant]”, the self-aminoacylation with biotinyl-Val-oxazolone amounted to 0.769; in the data set with biotinyl-Phe-oxazolone it was 1.04; with biotinyl-Ile-oxazolone, 0.868; with biotinyl-Leu-oxazolone it was 0.78; in the data set on biotinyl-Met-oxazolone, 0.77; with biotinyl-Trp-oxazolone it was 2.24.
